Reference: patent publication US20030091584A1 (AstraZeneca / MedImmune, published 2003)
Residue numbers refer to the chain shown, from its start. Values joined by “and” are separate entries in the source; they are usually repeats but may differ in a detail not shown here. Equal entries are not always repeated.

T1: RSV F glycoprotein (NUF4) (respiratory syncytial virus)
T1 chain 1: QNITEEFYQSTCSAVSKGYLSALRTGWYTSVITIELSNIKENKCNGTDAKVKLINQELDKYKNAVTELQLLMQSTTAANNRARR
T1 chain 2: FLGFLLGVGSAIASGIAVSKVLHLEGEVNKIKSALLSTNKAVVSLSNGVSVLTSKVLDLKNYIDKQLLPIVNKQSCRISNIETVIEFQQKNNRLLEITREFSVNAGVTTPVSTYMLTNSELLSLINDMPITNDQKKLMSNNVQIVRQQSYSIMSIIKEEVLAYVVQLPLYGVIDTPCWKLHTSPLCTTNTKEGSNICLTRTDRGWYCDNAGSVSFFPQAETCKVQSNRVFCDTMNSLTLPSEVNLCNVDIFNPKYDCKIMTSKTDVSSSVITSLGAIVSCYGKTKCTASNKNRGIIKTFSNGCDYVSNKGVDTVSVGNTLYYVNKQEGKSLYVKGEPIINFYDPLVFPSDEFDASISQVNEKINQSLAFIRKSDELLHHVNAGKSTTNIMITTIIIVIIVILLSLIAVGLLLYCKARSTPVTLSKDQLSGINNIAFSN

B1: A17d4 (monoclonal antibody) (antibody, V domains shown)
VH: QVTLRESGPALVKPTQTLTLTCTFSGFSLSTAGMSVGWIRQPPGKALEWLADIWWDGKKSYNPSLKDRLTISKDTSKNQVVLKVTNMDPADTATYYCARDMIFNFYFDVWGQGTTVTVSS
VL: DIQMTQSPSTLSASVGDRVTITCLPSSRVGYMHWYQQKPGKAPKLLIYDTMYQASGVPSRFSGSGSGTEFTLTISSLQPDDFATYYCFQFSGYPFTFGGGTKLEIK
notes: mAb with framework and constant regions of SYNAGIS
B2: H3-3F4 (Fab fragment) (Fab, V domains shown)
VH: B1 VH with G57D, S60D, D67S, F105W, Q112A
VL: B1 VL with L24S, P25A, R28S, M51F, Y52K, Q53L, F90G
B3: A12a6 (Fab fragment) (Fab, V domains shown)
VH: B1 VH with S60D
VL: B1 VL with L24S, P25A, M51F, Y52K, Q53L, A54S, F90G, L103V
notes: Fab
B4: A13a11 (Fab fragment) (Fab, V domains shown)
VH: B1 VH with G57D, S60H, F105W, Q112A
VL: B1 VL with L24S, P25A, R28S, M51Y, Y52R, Q53H, F90G
notes: Fab
B5: DG (Fab fragment) (Fab, V domains shown)
VH: B1 VH with G57D, S60D, D67S, F103T, Q112A
VL: B1 VL with L24S, P25A, R28S, M51F, Y52K, Q53L, F90G
B6: P11d4 (Fab fragment) (Fab, V domains shown)
VH: B1 VH with A32P, S60H, F105W
VL: B1 VL with L24S, Y52R, Q53L, F90G, L103V
notes: Fab
B7: 6H8 (Fab fragment) (Fab, V domains shown)
VH: B1 VH with G57D, S60D, D67S, F103T, Q112A
VL: B1 VL with L24S, P25A, R28S, M51F, Y52K, Q53L, A54T, F90G
B8: P12f4 (Fab fragment) (Fab, V domains shown)
VH: B1 VH with A32P, S60H
VL: B1 VL with L24S, P25L, M51R, Y52G, Q53L, A54P, F90G, L103V
notes: Fab
B9: A4B4 (monoclonal antibody) (antibody, V domains shown)
VH: B1 VH with G57D, S60H
VL: B1 VL with L24S, P25A, M51F, Y52F, Q53L, A54D, F90G
notes: mAb; also called A4B4/A4B4 (HC/LC)
B10: A13c4 (Fab fragment) (Fab, V domains shown)
VH: B1 VH
VL: B1 VL with L24S, P25L, A54S, F90G, L103V
notes: Fab
B11: Y10H6 (Fab fragment) (Fab, V domains shown)
VH: B1 VH with G57D, S60D, D67S, F105W, Q112A
VL: B1 VL with L24S, P25A, R28S, M51R, Q53L, A54S, F90G
B12: P12f2 (Fab fragment) (Fab, V domains shown)
VH: B1 VH with A32P, G57D, S60H, Q112A
VL: B1 VL with L24S, P25L, M51F, Q53L, A54S, F90G, L103V
notes: Fab
B13: A13c4 (monoclonal antibody) (antibody, V domains shown)
VH: B1 VH
VL: B1 VL with L24S, P25L, A54S, F90G, L103V
notes: as for B1
B14: A1e9 (Fab fragment) (Fab, V domains shown)
VH: B1 VH with A32P, S60H, F105W
VL: B1 VL with L24S, P25L, M51F, Y52K, Q53L, A54S, F90G, L103V
notes: Fab; also called *Ale9
B15: M3H9 (Fab fragment) (Fab, V domains shown)
VH: B1 VH with G57D, S60D, D67S, F105W, Q112A
VL: B1 VL with L24S, P25A, R28S, M51Y, Y52K, A54T, F90G

Key:
[1] = biological target: T1, RSV F glycoprotein (NUF4); assay: ITC, NUF4 titrated into antibody, 35 °C (1/Kb)
[2] = biological target: T1, RSV F glycoprotein (NUF4); assay: BIAcore, mAb vs NUF4 (1:1)
[3] = biological target: T1, RSV F glycoprotein (NUF4); assay: ITC, NUF4 titrated into antibody, 35 °C
[4] = biological target: T1, RSV F glycoprotein (NUF4); assay: BIAcore, mAb vs NUF4 (2:1)
[5] = biological target: T1, RSV F glycoprotein (NUF4); assay: ITC, NUF4 titrated into antibody
[6] = biological target: T2, F protein of wild type RSV A/Long (respiratory syncytial virus strain …, UniProt P12568 26-574); assay: cell-based or functional assay
[7] = biological target: RSV F protein (immobilized on the BIAcore sensor chip) (respiratory syncytial virus); assay: BIAcore, immobilized F protein;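 also: fab fragments as analytes binding F protein coupled to the chip via EDC/NHS chemistry, with blank surface signal subtracted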
[8] = biological target: T2, F protein of wild type RSV A/Long; assay: cell-based or functional assay; remark: listed apart in the source
[9] = biological target: T3, Bac-F; assay: BIAcore, mAb vs Bac-F (1:1)
T3 construct: Construct and strain not described

[10] = biological target: T4, F protein of RSV A/Long MARM with K272E, N276Y (respiratory syncytial virus strain …, UniProt P12568 26-574); assay: IFA on MARM-infected HEp-2 cells
T4 construct: whole, on cells; also called MARM #10; MARM 10

[11] = biological target: T5, F protein of RSV A/Long MARM with K272E (respiratory syncytial virus strain …, UniProt P12568 26-574); assay: IFA on MARM-infected HEp-2 cells
T5 construct: whole, on cells; also called MARM #6; MARM #9

[12] = biological target: T6, F protein of RSV MARM with K272Q, N262K (respiratory syncytial virus strain …, UniProt P12568 26-574); assay: IFA on MARM-infected HEp-2 cells
T6 construct: whole, on cells; also called MARM #13; MARM 13

Row | Binder | Fold Difference (Control IC50) [6] [fold] | Fold Difference (Curve IC50) [6] [fold] | Mean IC50 (Control), RSV microneutralization [6] [µg/mL] | Mean IC50 (Curve), RSV microneutralization [6] [µg/mL] | koff [7] | kon [7] | EC50 (nM), in vitro microneutralization of RSV Long [8] [nM] | other results
1 | B1 | 15 | 13 | 0.0354 | 0.0342 | – | – | – | Kd [1]: 13000 pM; Kd [2]: 730 pM; koff [2]: 0.000362 s⁻¹; kon [2]: 499000 M⁻¹ s⁻¹; number in parentheses after KD (fold against SYNAGIS = 1) [2]: 12 fold; Ka [3]: 7.5e+07 M⁻¹; Kd [4]: 1110 pM; koff [4]: 0.000292 s⁻¹; kon [4]: 264000 M⁻¹ s⁻¹; number in parentheses after KD (fold against SYNAGIS = 1) [4]: 281 fold; ΔHb (binding enthalpy) [5]: 16.3 kcal/mol
2 | B2 | – | – | – | – | 0.000445 s⁻¹ and 0.000402 s⁻¹ | – | – | –
3 | B3 | 17 | 16 | 0.031 | 0.0287 | 0.00023 s⁻¹ | 743000 M⁻¹ s⁻¹ | 0.62 | –
4 | B4 | 5 | 4 | 0.102 | 0.12 | 0.00025 s⁻¹ | 735000 M⁻¹ s⁻¹ | 2.04 | –
5 | B5 | – | – | – | – | 0.000167 s⁻¹ and 0.000444 s⁻¹ | – | – | –
6 | B6 | – | – | > 1 | > 1 | 0.000717 s⁻¹ | 570000 M⁻¹ s⁻¹ and 572000 M⁻¹ s⁻¹ | > 20 | –
7 | B7 | – | – | – | – | 0.000178 s⁻¹ and 0.000473 s⁻¹ | 314000 M⁻¹ s⁻¹ and 444000 M⁻¹ s⁻¹ | – | –
8 | B8 | 15 | 10 | 0.0351 | 0.0464 | 0.000299 s⁻¹ | 527000 M⁻¹ s⁻¹ | 0.7 | –
9 | B9 | 35 | 27 | 0.0154 | 0.0171 | – | – | – | Kd [1]: ~3700 pM; Kd [2]: 570 pM; koff [2]: 0.000282 s⁻¹; kon [2]: 496000 M⁻¹ s⁻¹; number in parentheses after KD (fold against SYNAGIS = 1) [2]: 15 fold; Ka [3]: 2.69e+08 M⁻¹; Kd [4]: 2000 pM; koff [4]: 0.000401 s⁻¹; kon [4]: 203000 M⁻¹ s⁻¹; number in parentheses after KD (fold against SYNAGIS = 1) [4]: 156 fold; Kd [9]: 20 pM; koff [9]: 1.06e-05 s⁻¹; kon [9]: 434000 M⁻¹ s⁻¹; number in parentheses after KD (fold against SYNAGIS = 1) [9]: 195 fold; ΔHb (binding enthalpy) [5]: 22.2 kcal/mol; binding result [10]: no binding (tested: 250 ng/ml); binding result [11]: no binding (tested: 250 ng/ml); binding result [12]: no binding (tested: 250 ng/ml)
10 | B10 | 21 | 17 | 0.0258 | 0.0264 | 0.00028 s⁻¹ | 781000 M⁻¹ s⁻¹ and 735000 M⁻¹ s⁻¹ | 0.52 | –
11 | B11 | – | – | – | – | 0.000462 s⁻¹ | 757000 M⁻¹ s⁻¹ | – | –
12 | B12 | 16 | 11 | 0.0326 | 0.0407 | 0.000282 s⁻¹ | 663000 M⁻¹ s⁻¹ | 0.65 | –
13 | B13 | 14 | 12 | 0.0375 | 0.0376 | – | – | – | Kd [1]: 9000 pM; Kd [2]: 750 pM; koff [2]: 0.000272 s⁻¹; kon [2]: 365000 M⁻¹ s⁻¹; number in parentheses after KD (fold against SYNAGIS = 1) [2]: 12 fold; Ka [3]: 1.07e+08 M⁻¹; Kd [4]: 700 pM; koff [4]: 0.000225 s⁻¹; kon [4]: 320000 M⁻¹ s⁻¹; number in parentheses after KD (fold against SYNAGIS = 1) [4]: 446 fold; ΔHb (binding enthalpy) [5]: 16 kcal/mol
14 | B14 | 4 | 3 | 0.125 | 0.157 | 0.000453 s⁻¹ | 790000 M⁻¹ s⁻¹ | 2.5 | –
15 | B15 | – | – | – | – | 0.000338 s⁻¹ | 605000 M⁻¹ s⁻¹ | – | –
